B1: CC21R3P1_F1 (scFv format) (scFv, part only; not given: linker, domain order, vector tags, V domains shown, not shown: another chain or arm of the molecule; small tags and cut ends)
VH: QVQLVESGGGVVQPGRSHTLSCAASGFAFKNSGIHWVRQAPGKGLEWVAVISYDGSNKFYADSVKGRFTISRDNSQNTVYLQMTDLRPDDTAVYYCARDGSESEYLDYWGKGTLVTVSS
VL: NFMLTQPHSVSESPGKTVTISCTGSGGSIDRNYVQWYQQRPGSAPITVIYEDNQRPSGVPDRFSGSIDSSSNSASLTISGLRTDDEADYYCQSYDSINLWVFGGGTKVTVL
B2: CC21R3P5_C5 (scFv format) (scFv, part only; not given: linker and tags, part only)
scFv, part: QVQLVQSGGGVVQPGRSLRLSCAASGFTFSTYGMHWVRQAPGKGLEWVAVISYDGGTKYYADSVKGRFTISRDNSMKTLYLQMNSLRTEDTAVYYCAKDLGDLPPGLDYWGRGTMVTVSSCHEMICALLYSYNTHESIZEDSYELTQPPSVSVALGQTATITCGGSSIESKSVHWYQEKPGQAPVLVIYKDSNRPSVIPERFSGSNSGNTATLTIGRAQAGDEADYYCQVWDSSTGVVFGGGTKLTVL
B3: CF1A11R3P3_F3 (scFv format) (scFv, part only; not given: linker, domain order, vector tags, V domains shown, not shown: another chain or arm of the molecule; small tags and cut ends)
VH: QVQLVESGGGVVQPGRSLRLSCAASGFTFSNSGIHWVRQAPGKGLEWVAVISYDGSNKFYADSVKGRFTISRDNSKNTLYLQMNSLRAEDTAVYYCAKLRDNGEYLDYWGQGTLVTVSS
VL: NFMLTQPHSVSESPGKTVTISCTGSGGSIDRNYVQWYQQRPGSAPITVIYEDNQRPSGVPDRFSGSIDSSSNSASLTISGLRTDDEADYYCQSYDSINLWVFGGGTKVTVL
B4: CC21R3P1_F1 (IgG1 format) (antibody, V domains shown)
VH: QVQLVESGGGVVQPGRSHTLSCAASGFAFKNSGIHWVRQAPGKGLEWVAVISYDGSNKFYADSVKGRFTISRDNSQNTVYLQMTDLRPDDTAVYYCARDGSESEYLDYWGKGTLVTVSS
VL: NFMLTQPHSVSESPGKTVTISCTGSGGSIDRNYVQWYQQRPGSAPITVIYEDNQRPSGVPDRFSGSIDSSSNSASLTISGLRTDDEADYYCQSYDSINLWVFGGGTKVTVL

How the values were obtained:
[1] = biological target: T1, recombinant human IP-10 (human, UniProt P02778 22-98); experiment: cell-based or functional assay
T1 construct: mature; also called hIP-10; rhIP-10
T1 sequence (looked up): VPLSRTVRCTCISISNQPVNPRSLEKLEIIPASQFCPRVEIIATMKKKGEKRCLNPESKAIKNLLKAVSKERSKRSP

[2] = biological target: T1, recombinant human IP-10; experiment: SPR (Biacore 2000); the text's value differs from Table 8 (9.2 × 10^-9 M)
Protocol: 200RU (response unit) of a goat anti-human polyclonal IgG (ahIgG; Biacore AB, Uppsala, Sweden) were immobilized by EDC/NHS chemistry on a C1 Biacore chip. […] The surface was regenerated after each cycle by injection of 10 mM glycine pH=1.5 at 30 μL/min, for 30 s followed by 1 min. of stabilization time in HBS-EP buffer.
Binding was measured by passing either hIP-10 (Peprotech, Rocky Hill N.J.) or a NusA-hIP-10 fusion protein at the following concentrations: 34.7 nM, 11.6 nM, 3.85 nM, 1.28 nM, 0.428 nM, 0.142 nM and OnM. All solutions were diluted in HBS-EP buffer (Biacore AB, Uppsala, Sweden). Injection was performed at 50 μl/min for 3 min. followed by 12 min. of dissociation time and the temperature was set at 25° C. […] Very similar values were obtained using rhIP-10 or the NusA-hIP-10 fusion, but better response signals were obtained with the fusion protein due to its larger size that induces a better response on the Biacore.

Row | Binder | Calcium flux IC50 (nM); hCXCR3-expressing L1.2 cells, 10 nM hIP-10 [1] [nM] | Chemotaxis IC50 (nM); hCXCR3-expressing L1.2 cells, 2 nM hIP-10 [1] [nM] | Chemotaxis IC50 (nM); hCXCR3-expressing L1.2 cells, 1 nM hIP-10 [1] [nM] | Kd [2] [nM]
1 | B1 | 36 | 18 | – | –
2 | B2 | 89 | – | 90 | –
3 | B3 | 14 | – | 1.8 | –
4 | B4 | – | – | – | 90.2

From patent US20100322941A1 (published 2010)
